{"source": "patent EP1959993B1", "key": {"[1]": {"target": "recombinant human RIIα (human) (UniProt P13861)", "sequence (P13861 whole entry)": "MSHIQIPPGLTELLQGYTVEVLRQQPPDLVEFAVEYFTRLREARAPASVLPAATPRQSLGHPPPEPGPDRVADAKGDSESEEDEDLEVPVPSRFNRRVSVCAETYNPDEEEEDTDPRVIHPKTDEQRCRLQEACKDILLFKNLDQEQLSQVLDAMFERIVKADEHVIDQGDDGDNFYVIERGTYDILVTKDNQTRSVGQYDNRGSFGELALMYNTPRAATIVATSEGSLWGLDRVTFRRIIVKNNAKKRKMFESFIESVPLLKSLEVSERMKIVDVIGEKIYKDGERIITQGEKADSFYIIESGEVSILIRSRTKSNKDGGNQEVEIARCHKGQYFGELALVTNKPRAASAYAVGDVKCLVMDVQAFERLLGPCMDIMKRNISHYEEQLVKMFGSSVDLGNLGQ", "experiment": "equilibrium SE-HPLC"}, "[2]": {"target": "N-DDD1-Fab-hMN-14 (human)", "experiment": "equilibrium SE-HPLC"}, "[3]": {"target": "C-DDD1-Fab-hMN-14 (human)", "experiment": "equilibrium SE-HPLC"}, "[4]": {"target": "C-DDD1-Fab-hMN-14 (human)", "experiment": "SE-HPLC of the mixture with hMN14-Fab-DDD1; h679-Fab-AD2 not reduced"}, "[5]": {"target": "C-DDD1-Fab-hMN-14 (human)", "experiment": "SE-HPLC of the mixture with hMN14-Fab-DDD1; h679-Fab-AD2 reduced with TCEP"}, "[6]": {"target": "fusion protein containing the A3B3 domain of CEA (UniProt P06731)", "experiment": "competitive ELISA against HRP-conjugated hMN-14 IgG on the A3B3 fusion protein"}, "[7]": {"target": "CEA (UniProt P06731)", "experiment": "SE-HPLC of 125I-TF2 mixed with a 20-fold molar excess of CEA"}}}
{"substance": "h679-Fab-AD1", "values": [{"measurement": "Kd", "setting": "[1]", "value": 30, "unit": "nM"}, {"measurement": "Kd", "setting": "[2]", "value": 8, "unit": "nM"}, {"measurement": "Kd", "setting": "[3]", "value": 15, "unit": "nM"}]}
{"substance": "h679-Fab-AD2", "values": [{"measurement": "fraction reactive", "setting": "[4]", "value": 0.33}, {"measurement": "percent activity", "setting": "[5]", "value": 100, "unit": "%"}]}
{"substance": "TF2 (bispecific antibody)", "values": [{"measurement": "avidity, fold against TF1", "setting": "[6]", "value": 2, "unit": "fold"}, {"measurement": "percent shifted to a high molecular weight species", "setting": "[7]", "value": 95, "unit": "%"}]}
